Measured values: patent US6180103A, “Peptide p277 analogs, and pharmaceutical compositions comprising them for treatment or diagnosis of diabetes” (Yeda Research and Development Co., Ltd., priority 1994, dated 2001)

Test system: T cells of IDDM patients and healthy blood-donors
Assay: Proliferative T cell response of IDDM patients and healthy blood donors
Format: cell-based, human
Settings: for Incidence of T-cell responses: positive = SI of 3 or greater

B1: hsp60: whole recombinant hsp60; human 60 kDa heat shock protein (protein, UniProt P10809 27-573, looked up)
60 kDa heat shock protein, …: AKDVKFGADARALMLQGVDLLADAVAVTMGPKGRTVIIEQSWGSPKVTKDGVTVAKSIDLKDKYKNIGAKLVQDVANNTNEEAGDGTTTATVLARSIAKEGFEKISKGANPVEIRRGVMLAVDAVIAELKKQSKPVTTPEEIAQVATISANGDKEIGNIISDAMKKVGRKGVITVKDGKTLNDELEIIEGMKFDRGYISPYFINTSKGQKCEFQDAYVLLSEKKISSIQSIVPALEIANAHRKPLVIIAEDVDGEALSTLVLNRLKVGLQVVAVKAPGFGDNRKNQLKDMAIATGGAVFGEEGLTLNLEDVQPHDLGKVGEVIVTKDDAMLLKGKGDKAQIEKRIQEIIEQLDVTTSEYEKEKLNERLAKLSDGVAVLKVGGTSDVEVNEKKDRVTDALNATRAAVEEGIVLGGGCALLRCIPALDSLTPANEDQKIGIEIIKRTLKIPAMTIAKNAGVEGSLIVEKIMQSSSEVGYDAMAGDFVNMVEKGIIDPTKVVRTALLDAAGVASLLTTAEVVVTEIPKEEKDPGMGAMGGMGGGMGGGMF
- Incidence of T-cell responses (Healthy blood donors (n=14)): 21%
- T-cell responses (stimulation index) (IDDM patient 1. patient eight, 3.5 months since diagnosis): + (SI values of 3 or greater were considered to be positive)
- T-cell responses (stimulation index) (IDDM patient 3. H, 6 months since diagnosis): + (SI values of 3 or greater were considered to be positive)
- T-cell responses (stimulation index) (IDDM patient 4. patient seven, 3 weeks since diagnosis): + (SI values of 3 or greater were considered to be positive)
- T-cell responses (stimulation index) (IDDM patient 4. patient seven, 5 weeks since diagnosis): + (SI values of 3 or greater were considered to be positive)
- T-cell responses (stimulation index) (IDDM patient 5. SD, 6 weeks since diagnosis): + (SI values of 3 or greater were considered to be positive)
- T-cell responses (stimulation index) (IDDM patient 6. P, 4 weeks since diagnosis): - (SI values of 3 or greater were considered to be positive)
- T-cell responses (stimulation index) (IDDM patient 7. G, 5 weeks since diagnosis): + (SI values of 3 or greater were considered to be positive)
- T-cell responses (stimulation index) (IDDM patient 7. G, 7 weeks since diagnosis): + (SI values of 3 or greater were considered to be positive)
- T-cell responses (stimulation index) (IDDM patient 9. patient two, 2 weeks since diagnosis): + (SI values of 3 or greater were considered to be positive)
- T-cell responses (stimulation index) (IDDM patient 10. T, 4 weeks since diagnosis): + (SI values of 3 or greater were considered to be positive)
- T-cell responses (stimulation index) (IDDM patient 12. patient nine, 6 weeks since diagnosis): - (SI values of 3 or greater were considered to be positive)
- T-cell responses (stimulation index) (IDDM patient 15. patient five, 3 weeks since diagnosis): - (SI values of 3 or greater were considered to be positive)
- T-cell responses (stimulation index) (IDDM patient 16. patient one, 2 months since diagnosis): + (SI values of 3 or greater were considered to be positive)
- T-cell responses (stimulation index) (IDDM patient 17. patient six, 4 weeks since diagnosis): - (SI values of 3 or greater were considered to be positive)
- T-cell responses (stimulation index) (IDDM patient 18. patient four, 4 weeks since diagnosis): + (SI values of 3 or greater were considered to be positive)
- T-cell responses (stimulation index) (IDDM patient 19. A, 11.5 years since diagnosis): + (SI values of 3 or greater were considered to be positive)
- T-cell responses (stimulation index) (IDDM patient 20. N, 7.5 years since diagnosis): + (SI values of 3 or greater were considered to be positive)
- T-cell responses (stimulation index) (IDDM patient 21. A, 5.7 years since diagnosis): + (SI values of 3 or greater were considered to be positive)
- Incidence of T-cell responses (IDDM patients (n=21)): 86%
- T-cell responses (stimulation index) (healthy blood donor 1): - (SI values of 3 or greater were considered to be positive)
- T-cell responses (stimulation index) (healthy blood donor 2): - (SI values of 3 or greater were considered to be positive)
- T-cell responses (stimulation index) (healthy blood donor 4): - (SI values of 3 or greater were considered to be positive)
- T-cell responses (stimulation index) (healthy blood donor 5): + (SI values of 3 or greater were considered to be positive)
- T-cell responses (stimulation index) (healthy blood donor 6): - (SI values of 3 or greater were considered to be positive)
- T-cell responses (stimulation index) (healthy blood donor 7): - (SI values of 3 or greater were considered to be positive)
- T-cell responses (stimulation index) (healthy blood donor 8): - (SI values of 3 or greater were considered to be positive)
- T-cell responses (stimulation index) (healthy blood donor 9): - (SI values of 3 or greater were considered to be positive)
- T-cell responses (stimulation index) (healthy blood donor 10): - (SI values of 3 or greater were considered to be positive)
- T-cell responses (stimulation index) (healthy blood donor 11): + (SI values of 3 or greater were considered to be positive)
- T-cell responses (stimulation index) (healthy blood donor 12): - (SI values of 3 or greater were considered to be positive)
- T-cell responses (stimulation index) (healthy blood donor 13): + (SI values of 3 or greater were considered to be positive)
- T-cell responses (stimulation index) (healthy blood donor 14): - (SI values of 3 or greater were considered to be positive)
